Source: patent US20160251450A1

Columns and labels:
[1] = molecular target: Anti-OVA IgG (rabbit-derived); assay: ELISA: OVA coated, rabbit Anti-OVA IgG, then HRP-labeled anti-rabbit IgG instead of the hybrid, TMB (sample No. 8)
[2] = molecular target: Anti-OVA IgG (rabbit-derived); assay: ELISA: OVA coated, rabbit Anti-OVA IgG, HRP-labeled anti-rabbit IgG. Signal against the no-antigen control
[3] = molecular target: Anti-OVA IgG (rabbit-derived); assay: ELISA: OVA coated, rabbit Anti-OVA IgG, then K-tag pG alone (negative control), then HRP-labeled anti-guinea pig IgG, TMB. The signal needs a second free IgG-binding site
[4] = molecular target: Anti-OVA IgG (rabbit-derived); assay: ELISA: OVA coated, rabbit Anti-OVA IgG, then wild-type pG sample (negative control), then HRP-labeled anti-guinea pig IgG, TMB. The signal needs a second free IgG-binding site

commercially available HRP-labeled anti-rabbit IgG (antibody)
change in the absorbance at 370 nm (dO.D./min) [1]: 0.18 dO.D./min | S/N ratio (No. 8 against No. 4 without antigen) [2]: 4.6

recombinant protein G with K-tag (K-tag pG), alone, not cross-linked to polymer
change in the absorbance at 370 nm (dO.D./min) [3]: < 0.03 dO.D./min

wild-type pG having no introduced K-tag (thrombin-treated K-tag pG)
change in the absorbance at 370 nm (dO.D./min) [4]: < 0.03 dO.D./min
